Data reported in patent publication US20050255554A1.

Molecular target: α-amylase
Assay: cell-based or functional assay

α-amylase inhibition activity (colorimetric α-amylase inhibition assay): 2 fold
Substance: thioredoxin/90-mer ELP/tendamistat fusion protein (from UniProt P01092 31-104)
